In paper PMC5309844, “PDI regulates seizure activity via NMDA receptor redox in rats” (Scientific Reports, 2017):

Key:
[1] = molecular target: T1, NMDA receptor NR1 subunit (rat (endogenous in hippocampus), UniProt P35439 19-938); experiment: co-IP; rat hippocampal tissue lysed in RIPA buffer; equal amounts of total protein precipitated with the appropriate primary antibodies and protein G sepharose at 4 °C overnight; Western blot; normal, chronic epileptic, and control siRNA- or PDI siRNA-infused epileptic animals; conditions: partners not purified
T1 construct: NR1 subunit of the N-methyl-D-aspartate receptor, rat, endogenous in the hippocampus; source: endogenous, rat hippocampal tissue lysate (RIPA buffer)

[2] = molecular target: T2, NMDA receptor NR2A subunit (rat (endogenous in hippocampus), UniProt Q00959 23-1464); experiment: as above; conditions: partners not purified
T2 construct: NR2A subunit of the N-methyl-D-aspartate receptor, rat, endogenous in the hippocampus; source: endogenous, rat hippocampal tissue lysate (RIPA buffer)
T2 sequence (Q00959 23-1464): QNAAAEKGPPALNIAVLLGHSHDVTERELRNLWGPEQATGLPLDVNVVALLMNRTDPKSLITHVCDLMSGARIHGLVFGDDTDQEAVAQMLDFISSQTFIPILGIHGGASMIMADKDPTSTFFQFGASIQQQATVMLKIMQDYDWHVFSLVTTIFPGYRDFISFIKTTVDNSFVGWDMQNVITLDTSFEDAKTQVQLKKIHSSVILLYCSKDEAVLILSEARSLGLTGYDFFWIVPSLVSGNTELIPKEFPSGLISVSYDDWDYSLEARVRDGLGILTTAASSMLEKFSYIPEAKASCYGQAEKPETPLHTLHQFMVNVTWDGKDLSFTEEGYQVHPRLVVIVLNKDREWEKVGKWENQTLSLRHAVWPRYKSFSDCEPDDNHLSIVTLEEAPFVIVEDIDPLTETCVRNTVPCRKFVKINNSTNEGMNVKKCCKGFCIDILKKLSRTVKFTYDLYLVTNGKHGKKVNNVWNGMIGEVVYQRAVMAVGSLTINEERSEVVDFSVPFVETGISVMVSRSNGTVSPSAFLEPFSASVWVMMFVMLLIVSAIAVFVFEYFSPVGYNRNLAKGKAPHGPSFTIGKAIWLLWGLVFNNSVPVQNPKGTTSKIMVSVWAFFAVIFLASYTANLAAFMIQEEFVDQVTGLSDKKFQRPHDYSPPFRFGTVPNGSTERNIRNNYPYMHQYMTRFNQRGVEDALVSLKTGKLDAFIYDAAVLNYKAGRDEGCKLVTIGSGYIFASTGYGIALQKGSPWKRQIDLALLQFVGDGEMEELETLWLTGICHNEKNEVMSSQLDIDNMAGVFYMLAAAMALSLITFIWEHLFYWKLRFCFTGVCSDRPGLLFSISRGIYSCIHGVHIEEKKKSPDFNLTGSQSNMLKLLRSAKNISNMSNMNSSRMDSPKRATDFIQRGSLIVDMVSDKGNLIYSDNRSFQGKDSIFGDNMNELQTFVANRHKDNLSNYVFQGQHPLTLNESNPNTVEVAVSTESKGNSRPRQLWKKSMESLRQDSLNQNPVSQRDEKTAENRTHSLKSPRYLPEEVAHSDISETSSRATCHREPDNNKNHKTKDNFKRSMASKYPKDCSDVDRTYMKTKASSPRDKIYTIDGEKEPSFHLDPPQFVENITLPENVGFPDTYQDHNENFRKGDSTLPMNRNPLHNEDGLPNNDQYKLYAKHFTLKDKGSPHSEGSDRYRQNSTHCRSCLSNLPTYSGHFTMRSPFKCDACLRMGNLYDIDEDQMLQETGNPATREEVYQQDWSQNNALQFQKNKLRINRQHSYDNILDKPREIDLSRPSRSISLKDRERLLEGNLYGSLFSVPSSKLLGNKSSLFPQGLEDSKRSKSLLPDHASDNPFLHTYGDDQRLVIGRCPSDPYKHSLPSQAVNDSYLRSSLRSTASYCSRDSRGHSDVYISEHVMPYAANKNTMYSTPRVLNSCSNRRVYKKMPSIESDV

fold of co-precipitation in epileptic against normal animals [1]: ~2.4 fold
fold of co-precipitation in epileptic against normal animals [2]: ~2.4 fold
B1: Protein disulfide isomerase (enzyme, rat (endogenous in hippocampus), UniProt P04785 20-509, looked up)
chain: DALEEEDNVLVLKKSNFAEALAAHNYLLVEFYAPWCGHCKALAPEYAKAAAKLKAEGSEIRLAKVDATEESDLAQQYGVRGYPTIKFFKNGDTASPKEYTAGREADDIVNWLKKRTGPAATTLSDTAAAESLVDSSEVTVIGFFKDAGSDSAKQFLLAAEAVDDIPFGITSNSDVFSKYQLDKDGVVLFKKFDEGRNNFEGEITKEKLLDFIKHNQLPLVIEFTEQTAPKIFGGEIKTHILLFLPKSVSDYDGKLSNFKKAAEGFKGKILFIFIDSDHTDNQRILEFFGLKKEECPAVRLITLEEEMTKYKPESDELTAEKITQFCHHFLEGKIKPHLMSQELPEDWDKQPVKVLVGKNFEEVAFDEKKNVFVEFYAPWCGHCKQLAPIWDKLGETYKDHENIVIAKMDSTANEVEAVKVHSFPTLKFFPASADRTVIDYNGERTLDGFKKFLESGGQDGAGDNDDLDLEEALEPDMEEDDDQKAVKDEL
notes: Protein disulfide isomerase (PDI), rat, endogenous in the hippocampus of Sprague-Dawley rats; also called PDI; source: endogenous, rat hippocampal tissue lysate (RIPA buffer)
